In paper PMC5426754:
pKd: −log10 of the molar value. Where two headings read alike, the source gives them in different places. Each block holds one substance with its values, some of them ahead of it.

Columns and labels:
[1] = molecular target: S100A4-Δ9 (S100A4 C-terminally truncated by 9 residues) (UniProt P26447); experiment: NMR titration; unlabeled C-ERMAD (7.5 mM stock) added gradually to 15N-labeled S100A4-Δ9 dimer (250 μM) up to 2.1:1; 1H-15N HSQC, 700 MHz, 300 K; 20 mM MES pH 6.0, 150 mM NaCl, 10 mM CaCl2, 5 mM TCEP; ten shifting peaks fitted to a quadratic binding equation
[2] = molecular target: Fl-C-ERMAD^516–560 (fluorescently labeled, Cys-Lys516-Leu560) (human); experiment: fluorescence polarisation; direct FP; 50 nM fluorescent tracer (Fl-C-ERMAD variants or Fl-NMIIA) titrated with S100 proteins or N-ERMAD; 20 mM HEPES pH 7.5, 150 mM NaCl, 0.1 mM TCEP, 1 mM CaCl2, 0.05% Tween-20; triplicates; quadratic binding equation
[3] = molecular target: S100A4 (metastasin), wild type (UniProt P26447); experiment: fluorescence polarisation; competitive FP; 50 nM Fl-NMIIA complexed with 4 μM S100A4 dimer titrated with ezrin constructs; competition binding equation; triplicates
Chain of S100A4 (metastasin), wild type (UniProt P26447) (P26447 whole entry): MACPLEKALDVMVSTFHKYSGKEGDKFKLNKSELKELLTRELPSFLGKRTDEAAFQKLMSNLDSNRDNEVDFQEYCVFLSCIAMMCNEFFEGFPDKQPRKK

[4] = molecular target: S100A4 (metastasin), wild type (UniProt P26447); experiment: as above; remark: listed apart in the source

Chain of Ezrin C-ERMAD (Cys-Lys516-Leu586), unlabeled (P15311 other isoform, or with tags, fused parts or gaps): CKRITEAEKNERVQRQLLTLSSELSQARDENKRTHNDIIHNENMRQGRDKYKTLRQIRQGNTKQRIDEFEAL
Chain of S100A4 (metastasin), wild type (from UniProt P26447 1-101) (natural protein) (P26447 whole entry): as the sequence (P26447 whole entry) above

- pKd [1]: 4.97
Substance: Ezrin C-ERMAD (Cys-Lys516-Leu586), unlabeled (from UniProt P15311 516-586) (domain or fragment)

- pKd [2]: 5.08
Substance: S100A4 (metastasin), wild type (from UniProt P26447 1-101) (natural protein)

- pKd [3]: 4.56
- pKd [4]: 4.54
Substance: Ezrin C-ERMAD^516–560 (Cys-Lys516-Leu560), unlabeled (domain or fragment)
